Results published in patent publication US20260108556A1 (ABELZETA, published 2026).

What was measured:
FCGR1A (human) = FCGR1A (human) (UniProt P12314); assay: flow cytometry, HEK293T membrane protein array
human CD20 = target: T1, human CD20 (human, UniProt P11836 1-297); assay: flow cytometry, HEK293T membrane protein array
T1 construct: whole, on cells; also called B1; MS4A
T1 sequence (looked up): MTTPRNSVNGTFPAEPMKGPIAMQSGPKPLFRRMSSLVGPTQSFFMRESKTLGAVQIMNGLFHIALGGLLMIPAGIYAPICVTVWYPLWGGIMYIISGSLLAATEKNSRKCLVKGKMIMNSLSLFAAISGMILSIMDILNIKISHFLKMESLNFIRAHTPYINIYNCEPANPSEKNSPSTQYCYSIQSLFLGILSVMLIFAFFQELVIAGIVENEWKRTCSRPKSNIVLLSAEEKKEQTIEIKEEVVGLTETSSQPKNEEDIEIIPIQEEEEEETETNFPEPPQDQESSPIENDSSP
From the text: (§1) In the membrane protein array, genetic engineering methods are used to construct the full-length cDNA sequences of human membrane proteins into expression vectors, which are then transiently transfected into HEK293T cells and arranged into an array by using microfluidic technology or chip printing technology. It is a high-throughput screening technology for studying the interaction between test substances and membrane proteins.
(§2) A chimeric rabbit monoclonal antibody, C-CAR168 scFv-RabFc, was generated by linking the anti-CD20 scFv (e.g., derived from the Ofatumumab mAb) and the anti-BCMA scFv (e.g., derived from the BCMA-20 mAb) in frame with a rabbit IgG Fc region. The chimeric antibody was added at a concentration of 20 μg/mL to the HEK293T cell array transiently transfected with 5220 membrane proteins. […] The average fluorescence intensity of its binding to CD20 and BCMA in flow cytometry was about 60-fold and 110-fold of that of the negative control group, respectively (FIG. 8B). […] This is mainly due to the binding between FCGR1A and the rabbit-derived Fc of the recombinant protein; so there is no relevant risk in clinical applications.

human BCMA = target: T2, human BCMA (human, UniProt Q02223 1-184); assay: flow cytometry, HEK293T membrane protein array
T2 construct: whole, on cells; also called B-cell maturation antigen; TNFRSF17
T2 sequence (looked up): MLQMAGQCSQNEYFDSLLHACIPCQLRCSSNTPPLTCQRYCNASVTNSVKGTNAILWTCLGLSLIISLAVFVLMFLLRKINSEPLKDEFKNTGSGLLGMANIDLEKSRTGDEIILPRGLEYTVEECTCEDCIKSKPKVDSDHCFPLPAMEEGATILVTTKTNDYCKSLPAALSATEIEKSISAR
From the text: as §1, §2

F11R (human) = F11R (human) (UniProt Q9Y624); assay: flow cytometry, HEK293T membrane protein array, 20 µg/mL and 5 µg/mL
MC2R = target: T3, MC2R (human, UniProt Q01718 1-297); assay: as above
T3 construct: whole, on cells
From the text: as §1, §2

MPZ = target: T4, MPZ (human, UniProt P25189 30-248); assay: as above
T4 construct: whole, on cells
T4 sequence (looked up): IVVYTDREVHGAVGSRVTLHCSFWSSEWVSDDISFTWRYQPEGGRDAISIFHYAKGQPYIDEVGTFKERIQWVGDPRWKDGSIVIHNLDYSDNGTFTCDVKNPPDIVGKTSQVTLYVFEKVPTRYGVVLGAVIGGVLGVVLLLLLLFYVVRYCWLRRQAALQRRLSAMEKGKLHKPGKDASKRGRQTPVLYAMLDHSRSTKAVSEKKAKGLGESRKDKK
From the text: as §1, §2

CLEC2B = target: T5, CLEC2B (human, UniProt Q92478 1-149); assay: as above
T5 construct: whole, on cells
T5 sequence (looked up): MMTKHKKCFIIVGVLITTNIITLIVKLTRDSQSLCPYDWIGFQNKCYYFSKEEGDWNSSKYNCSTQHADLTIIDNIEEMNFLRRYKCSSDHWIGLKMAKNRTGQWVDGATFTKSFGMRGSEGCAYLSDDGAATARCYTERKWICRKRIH
From the text: as §1, §2

Sequence of F11R (human) (Q9Y624 28-299, stated change not applied): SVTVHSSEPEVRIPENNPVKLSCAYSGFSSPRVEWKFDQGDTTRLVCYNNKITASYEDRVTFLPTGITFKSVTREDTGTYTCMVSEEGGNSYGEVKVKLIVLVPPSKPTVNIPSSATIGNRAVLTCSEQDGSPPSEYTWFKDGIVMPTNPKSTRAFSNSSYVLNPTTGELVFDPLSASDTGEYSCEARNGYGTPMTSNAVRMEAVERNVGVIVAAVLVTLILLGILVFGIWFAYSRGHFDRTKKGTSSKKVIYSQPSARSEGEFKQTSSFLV
Sequence of FCGR1A (human) (P12314 16-374): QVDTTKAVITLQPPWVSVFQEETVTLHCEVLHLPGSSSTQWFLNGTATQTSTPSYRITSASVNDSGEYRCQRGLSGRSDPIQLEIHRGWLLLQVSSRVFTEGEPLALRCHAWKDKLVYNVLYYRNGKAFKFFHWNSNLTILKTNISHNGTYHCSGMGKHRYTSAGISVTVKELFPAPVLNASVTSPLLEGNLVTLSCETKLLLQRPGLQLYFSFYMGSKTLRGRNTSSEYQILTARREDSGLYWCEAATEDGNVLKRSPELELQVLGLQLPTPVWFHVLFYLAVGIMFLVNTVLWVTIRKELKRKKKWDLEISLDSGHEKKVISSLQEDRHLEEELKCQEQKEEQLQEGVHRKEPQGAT
T3 sequence (Q01718 whole entry): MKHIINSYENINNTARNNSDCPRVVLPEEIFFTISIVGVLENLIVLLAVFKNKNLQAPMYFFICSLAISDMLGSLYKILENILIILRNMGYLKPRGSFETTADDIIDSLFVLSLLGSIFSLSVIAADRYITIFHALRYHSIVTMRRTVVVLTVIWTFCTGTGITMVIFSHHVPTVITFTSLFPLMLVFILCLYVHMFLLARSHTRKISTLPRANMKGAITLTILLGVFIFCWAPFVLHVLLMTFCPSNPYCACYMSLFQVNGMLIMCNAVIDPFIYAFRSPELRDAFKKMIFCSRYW

average fluorescence intensity, fold of the negative control group (FCGR1A (human)): 2.5 fold
average fluorescence intensity, fold of the negative control group (human CD20): ~60 fold
average fluorescence intensity, fold of the negative control group (human BCMA): ~110 fold
average fluorescence intensity, fold of the negative control group (F11R (human)): < 2 fold
average fluorescence intensity, fold of the negative control group (MC2R): ≤ 2 fold
average fluorescence intensity, fold of the negative control group (MPZ): ≤ 2 fold
average fluorescence intensity, fold of the negative control group (CLEC2B): ≤ 2 fold
B1: C-CAR168 scFv-RabFc (Fc fusion)
chain: EIVLTQSPATLSLSPGERATLSCRASQSVSSYLAWYQQKPGQAPRLLIYDASNRATGIPARFSGSGSGTDFTLTISSLEPEDFAVYYCQQRSNWPITFGQGTRLEIKGSTSGGGSGGGSGGGGSSEVQLVESGGGLVQPGRSLRLSCAASGFTFNDYAMHWVRQAPGKGLEWVSTISWNSGSIGYADSVKGRFTISRDNAKKSLYLQMNSLRAEDTALYYCAKDIQYGNYYYGMDVWGQGTTVTVSSGGGGSDIQMTQSPSSLSASVGDRVTITCRASQGISNYLNWYQQKPGKAPKPLIYYTSNLQSGVPSRFSGSGSGTDYTLTISSLQPEDFATYYCMGQTISSYTFGQGTKLEIKGGGGSGGGGSGGGGSEVQLVESGGGLVQPGGSLRLSCAASGFTFSNFDMAWVRQAPGKGLVWVSSITTGADHAIYADSVKGRFTISRDNAKNTLYLQMNSLRAEDTAVYYCVRHGYYDGYHLFDYWGQGTLVTVSS
notes: also called chimeric rabbit monoclonal antibody; not shown: rabbit IgG Fc region
